Reference: the DeepSol protein solubility set

Assay: soluble on expression in E. coli; label from the status in PepcDB or PDB records

| Sequence | soluble on expression in E. coli |
| --- | --- |
| MGSDKIHHHHHHMLLFQDLRKDIYEIVSKRFRISENDVYLDDTGHSDITIRVFRILKSPDGGENAVMEIVRSISEKDYVEKALSEGGYINVWIKRTYMLREVLESIEKSGTYPDVFQEAERVSVEHTSANPTGPLHIGRARNSIIGDSIYRILSRYGYRTVRQYFVNDSGKQMISLYTAYIKYGGPITIENLLENYQKIYREMEKDQSIEKEIEKNIERYENADPEVFGTLRKIAGVMLDGIASTLKRIGIEFDEFDWESDLLLNGSVRKAIDMLETKEEDSARYIEISGKKVFLTRKDGTTLYFARDIAYHLFKAENSEWIIDVLGEDHKDHAKSLNHVLKEMLKLENRVSFMYYSFITLETGKMSTRRGNIVTLQDLVDRTYDEALKIVNEKRPDLSEEERKKIAEVIASSAVRYSIIRVSAPKPITFRWEEALNFESNSAPFIMYSHARAASILDKAPEPEQSYGMDMPKEEADLVKAMYVYPYYLKDAAQDLKPDLIAAYLISLVQKFNDFYGACRVIGTDPLTYARRIRIVKAYKQILSDAGDLIGIKMLDQM | not soluble |
| MNPNFTTEHTWQGRHDPEDGQAGRRVHHIACPIQVGELANQEPGVALIGFECDAGVERNKGRTGAKHAPSLIKQALANLAWHHPIPIYDLGNIRCEGDELEQAQQECAQVIQQALPHARAIVLGGGHEIAWATFQGLAQHFLATGVKQPRIGIINFDAHFDLRTFESELAPVRPSSGTPFNQIHHFCQQQGWDFHYACLGVSRASNTPALFERADKLGVWYVEDKAFSPLSLKDHLTQLQHFIDDCDYLYLTIDLDVFPAASAPGVSAPAARGVSLEALAPYFDRILHYKNKLMIADIAEYNPSFDIDQHTARLAARLCWDIANAMAEQVQSIRHP | soluble |
| MEEPSELGASKEKPIELNEDDESSDGENSVIILDSDTEPEDGAGGEEDEDNGEDSEEEDEEDSDEEESEDDSDSSVDTESVNSVWSNVDEENGEEITTEAAEAKIIKKFEKAIFSIADNDSETGRRILEKLLNDAIIATYNQENPDFELLDEPPRLAKMLQVFIASHRNLAKLCEKEVENADEKEKEQLKSEEIQHLCQVLAYEPNSSDIWLDVALKSIEFGDLNFSKYAFKRCETLKESLESHATLLYLTCDYNESLMIMKQFQEQNDVLNDKLKYLKHKIRSTNQYYKLSCDRIFEEDEVYADVQSVEKRKIQDFDERIEALRSRVVGKIEQRDVDFRDEEEKCSVIPIRIEADQE | not soluble |
| MGSDKIHHHHHHLNAAAQTTPEIRRPQLGWTMLETPRFLSETALLALAWPMLAKAPQGDGHPVMVLPGFATNDTMTVLLRSFLARLGYQVFPWDLGWNLDQHSAGENGEHLAARIDAIAAETGRKVSLVGWSLGGVIAREAARRDHGGLRQVVTLGSPFTGNPRATSLTSLYELLTGNKASSEKSAARYARGHHPLPVPSTAIFSRTDGITAWENCVSETDDRTENIEVHCSHFGFVANPGVFWAVADRLAQPEGQWRKFDPKGCFAAFYP | not soluble |
| MAHHHHHHMGFWVFDRVADGFLFRGRRQLSRLHQRNAMLDANGMPLTGDLAAEATTWRSQHAFSGRCGLSVKRSPEPHDNRDEARRNGGGDVPHPEKMLPSYECIISRSPNDYRAWAVDFHLQSTSEDPHVLLSVAPYYAPLQSNFVEGGRSWHPPTTEEQEMYDKRMLETPLIWEEPMTLSLDCTNSGMFLWSEEWKIFGEKIADNCFSRRSQSRGGDDSVDQMGGVSGVREGPYEAFVRLSWRMMSAGENDMYGGEKRSLSDASVRNIIVGPCQGEMTVFLRTSSSDQEEGDVSVPRQINGTGNVGAHGGESVSSGVQVWKRAGGRAVLGDDIPNEIYFTPYVTLMDAGDEAILL | soluble |
| GPGSMFGRSALCLAKRFRYNTKYPSLVSYNKLPWEILNHETPEFHMHVAPHYEQIMTLAASTHVPHIVGKKHLEMPPEHRLRLLPGMFYMLDGDSIPEGFTANRVLDPTALQYYGRLESLVAPVQAVRMLISDDLRIVCNSVTLQGPLQLPVASYASLASLEVVTNKASASFTLFHFVRPNRPPSELQLEKYYIHAPRAMALAEFNSTSNTSWEPKLQAPKRSKRVTPLPAYRPPQSYLMGLAERLAVVPGSSFGRRSLMWGHWF | not soluble |
| MLGRRAVSVHRFLSRAARQSVTAASSAQPSLQAKTSLLEPLVQNVRITSSANFHMSAVRMSDVITVEGPAFAESISEGDIRWLKQKGDHVNEDELVAEIETDKTSVEVPAPQAGTIVEFLVEDGAKVTAKQKLYKLQPGAGGGSSSAPAKEEPKSAPAKEESKPAPAKEDSKPAVTAAAPPKPVSGDIPKSAPPVARPPSTPSSSTPVGAVPVTRVVVPKGVDPSHAITGARDEVRVKANRMRMRIAQRLKDAQNTYAMLTTFNEIDMSSLIEMRKTYQKDFVAKHGVKLGMMSPFVRAAAYALQESPVVNAVLDENEIVYRHFVDISVAVATPKGLVVPVLRNVESMNYAQIELELANLGVKARDGKLAVEDMEGGTFTISNGGVFGSMFGTPIINPPQSAILGMHGVFDRVVPVNGKPEIRPIMQIALTYDHRLIDGREAVTFLKKIKTAVEDPRIMFMNL | not soluble |
| MSLTFKLRETIKINHKKVQRIMQWLGLKGKCKTQKYRSYQGEVGHIADNLLQRDFTATQPNEKWTTDITEFKCAEGKLYLSPIKDLFNNEIIAYDLARSPNFEQITRMMKQAVARLEGAKPILHSDQGWQYQMIGYQNILRENGIQQSMSRKGNCLYNSAMESFFGRLKTECYYGKRFETFEQLEKTIHEYIHYYNHERIQGKLKGLSPVNYRTQSLNEGHHHHHH | not soluble |
| MMKVYRLYLRDEYLEMVKSGKKRIEVRVAYPQLKGMKRGDKIIFNDEVPAEVIEVKHYETFRQVLREEPIDKIFPDEPSFERALRRFHNLYPKWKENRYGVIAIKFKLLGRERK | soluble |
| MSATASVATRHDWSLAEVRALFEQPFNDLLFQAQTVHRAHFDPNRVQVSTLLSIKTGACPEDCKYCPQSGHYNTGLDKEKLMEVQKVLEAAAEAKAIGSTRFCMGAAWKHPSAKDMPYVLEMVKGVKKLGLETCMTLGRLTQEQTQALADAGLDYYNHNLDTSPEFYGNIITTRTYSERLQTLAYVREAGMKICSGGILGMGESVDDRAGLLIQLANLPEHPESVPINMLVKVKGTPLAEEKDVDPFDFIRTLAVARIMMPKSHVRLSAGREQMNEQMQALAFMAGANSIFYGEKLLTTKNPQAEKDMQLFARLGIKPEEREEHADEVHQAAIEQALVEQRESKLFYNAASA | not soluble |
| MGSDKIHHHHHHMSTPGSTPPPSVADQPHPLPLANGHPISGATADAAAQWLTLLMSDEMTDSDYQCWQQWRAAHPDHERAWQHIEAVTARFRELPSTAAYKSLSPLTNPVSAGKPGSPGRRKAMGTLLWLGTAGVGSMLVSRTQIWQQTVADYRTGTGEQRAIYLADGTHIMLNTYSAIDVAFDAQHRTIRLITGDILITTHPVHTPISDPRPFIVETAEGRIRALGTRFTVSQRKGRTHVAVLEHAVEVTPAAAPDRQYILPAGQQLSFTRHTLNNATTLDKQTTGWTQGQIIADNIRLGDFITDLGRYRTGLLRCDPAVAELRLSGVFPLDDTDRILETLPSVLPVRVRLRTRYWVIVEAAS | not soluble |
| MGSDKIHHHHHHMVSYKILSVANKLKNIRDKYGLSQEDLAGNEITRNLISQIEHNKANLTRSAAEIMLKNLKKICDKKNVQVDEDINYLMEDEKSQAIKVLDKYIDDLRDLTIYKDNVFINKLREVEDFLVTWDFRDKKITIFELAGDYFSSTNDFYNASLYYEKAKALIDINIYSDNIVHILRKLSMTYYYMLRYQDDINCCEFALKQFKNMDEEYRCIFLFNSSLCYGQLKKYDLALKRLNEVESIIKNIDQNKYYEVLIQKAICYQWMKEYQKSLDIYNKLLESIDKSDYEKYLFILVNSSDIYVENSNFEKAESNLRIILENINNLNESSTLLPSTYLEMSRILKKLGYTKDAELYCLKSLNYAKRNTHYYLVNDIYGELLDIYKTLNVPEKVQTIKDEFFSNSSRDKNLNSKLMFKLLDFYFATNDIHSIKEIYDFSKNFIQERMINLCY | not soluble |
| MAHHHHHHVGTGSNDDDDKAGLVEGQNYTVLANPIPQQQAGKVEVLEFFGYFCPHCAHLEPVLSKHAKSFKDDMYLRTEHVVWQKEMLTLARLAAAVDMAAADSKDVANSHIFDAMVNQKIKLQNPEVLKKWLGEQTAFDGKKVLAAYESPESQARADKMQELTETFQIDGTPTVIVGGKYKVEFADWESGMNTIDLLADKVREEQKAAQ | soluble |
| MVYWEYKINQTRRVMKNLKFQSVFDIIGPVMVGPSSSHTAGAVRIGKIVSAIFGDAPTEVEFQLFNSFAKTYRGHGTDVALVAGILGMETDDPDIPHALDIAHEKGIKVYWKINKDSKAPHPNTTRITLKNATKTISATGISIGGGNIQVTELNGF | not soluble |
| MGHHHHHHSHMGNCQAVNAAVLVLQHPGGIIDRYYSSVSVTEVMAMYPGHYVSLIIPLSEEEEKNIPATEKGDDKKQRKAVRFTRVQLLRPTENLVLGHAYRLITSQEVMKVLREKKSAKTKKHQIEKTTTAKKFSDKKVPEKKQGKQFRVIRNSTSLLKSKTWRPSLQSISEATS | soluble |
| DMWVYCETQAGDLVDVSKEMLGKARELMNDYNAAYDEDERVVAVLIGAAASDHVEDVIAYGADLVVYHEDDRLDRFRHQPYTEIFCDMARAGGDLAADGREETEWKDYHEPRYTVFPATNNGRDLSALVQGELDSGLASDCSGLYIESAMISNPAKVGTAGDKKEFERVLHMKRPDFSGFEYSTILCIDKPHRDFHPQGASVIPGSFEMPDPDYERDGEVVDYGMDIDDDWFTVEVEEYDRLSGGVD | not soluble |
| GSHMAMAYVIRDEWGNQIWICPGCNKPDDGSPMIGCDDCDDWYHWPCVGIMAAPPEEMQWFCPKCANKIKKDKKH | soluble |
| MGSDKIHHHHHHMNTYIKILLGTCCSFSILSCSNNLDETVYSKVTEQTYNYTVDDFTPSIASVYSYLRSQSDHWGYFCAQEVSADAIVMPPNASGWDDGGAYRRMHYQTWNSEQDHVKNIWSWFYQGALLCNKIIEQIKTGVIPTPSDTEKTQGLAELRAMRAYYYWQICDNFGDAPLVTTTAMDLPAKNTRREIFDFVENELIEVIPNLSEEVGGNYYGRMTKWAAKALLANLYLNAQVYINEARWNDCITQCDDIINSGKFTLAENYKDLFRALGVESCKEIIFTIPYDENFATGNSIFMFSWHGELKKKYNTIDTPWGCGSAMGVTQFIDTYNEKDSRLADTWLMGQQLAADGTPLYGTYDKMGEPLIYTKDIPSGNYTSELEGYRMNKFEVAENSYSSSNTDIPVFRYAEIMMMKAECLLRTGKSGAGTLVTQVRQRAFKDNPELATVTDSQLAGNTCYQYGYVEDYKIVDRGNTDPIQFGRMYDELGWEFAWEMHRRRDAIRFGIYTTKSWLSHKPEGDYRSVFPIPETVLTSNPNLEQNPNYL | not soluble |
| MKKIAIFGSRHKSEQGASIKALILKLEEAGTPLYIERKFLSFLKQDLDFHPAICGVIDTLPEHIDYVICMGGDGTFLRTAHQIGVSQIPVLGVNTGRLGFLTDVDCHEASELITRLLDGDFTIETRSLLEVTEDNGSSPSYALNEAAILKRETGSMIRVNACLNDDYLAAYDADGLVVATPSGSTAYSLSGNGPIIMPACRNFVLTPIAPHSLNMRPLVVPDDTVIRLEVDSRSRNYLLVLDGRTRTLPCDTSILLKRAPHTLRMIRLRPHSFAETLRRKLMWGAAVRLEHHHHHH | soluble |
| MSDALDDENVLCFRYKSYYIKDDGSRIDTLNEERIKHIVDFTLDKYLDATQNTPKFDNFENPVKEGFNSIFACESKEAAIEYYKEFKKQIEQKKLPIKIASIIAQTKVVMNKKLV | soluble |
